Values of other authors as cited in PMC5533512.

Target: CD40 (Homo sapiens) (UniProt P25942)
Chain of UniProt P25942 (P25942 21-193): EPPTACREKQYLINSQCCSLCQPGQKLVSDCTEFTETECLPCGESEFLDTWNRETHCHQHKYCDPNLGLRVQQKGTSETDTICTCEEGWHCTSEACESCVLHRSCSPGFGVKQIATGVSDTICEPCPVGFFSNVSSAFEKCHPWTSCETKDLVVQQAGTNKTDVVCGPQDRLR

Kd: 1 nM
Substance: dacetuzumab
